The supplement of paper PMC7877785
± gives the uncertainty stated by the source.

Assay: self-splicing fitness, log relative to wild type (ln ratio); higher = more splicing; Tetrahymena group I intron in knt gene, E. coli kanamycin selection, DiMSum; sequences stand for … in CUCUCU…GGAGGGAAAAGUUAUCAGGCAUGCACCUGGUAGCUAGUCUUUAAACCAAUAGAUUGCAUCGGUUUAAAAGGCAAGACCGUCAAAUUGCGGGAAAGGGGUCAACAGCCGUUCAGUACCAAGUCUCAGGGGAAACUUUGAGAUGGCCUUGCAAAGGGUAUGGUAAUAAGCUGACGGACAUGGUCCUAACCACGCAGCCAAGUCCUAAGUCAACAGAUCUUCUGUUGAUAUGGAUGCAGUUCACAGACUAAAUGUCGGUCGGGGAAGAUGUAUUCUUCUCAUAAGAUAUAGUCGGACCUCUCCUUAAUGGGAGCUAGCGGAUGAAGUGAUGCAACACUGGAGCCGCUGGGAACUAAUUUGUAUGCGAAAGUAUAUUGAUUAGUUUUGGAGUACUCGUGGUCG
Outline: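 Colonies from six replicate transformations of E. coli BL21(DE3) were pooled and amplicon-sequenced on an Illumina HiSeq 2500. The library placed an intron with all eight P1ex-region nucleotides randomised inside the knt kanamycin-resistance gene on pET-22b(+), and cells grew overnight at 37°C or 30°C on LB agar with or without 25 μg/mL kanamycin (plus 100 μg/mL carbenicillin, 50 μM IPTG, 0.2% rhamnose). Fitness is the DiMSum error-weighted combination of wild-type-normalised replicate fold changes, kanamycin versus none.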

Sequence | self-splicing fitness (ln) (30 °C) | self-splicing fitness (ln) (37 °C)
CUUCAGCAAUAUUACGCGAU | -2.85 ± 0.32 | -1.19 ± 0.38
UGCCAGCAAUAUUACGAGAA | – | -0.955 ± 0.25
UUGAAGCAAUAUUACGUCUG | 0.509 ± 0.059 | 0.84 ± 0.081
AACAAGCAAUAUUACGUACC | -1.03 ± 0.083 | 0.125 ± 0.13
GCUGAGCAAUAUUACGGCCG | -3.94 ± 0.32 | -2.37 ± 0.39
ACGGAGCAAUAUUACGUUGU | -3.46 ± 0.14 | -2.07 ± 0.13
UGGAAGCAAUAUUACGCUGA | – | -0.713 ± 0.4
GUACAGCAAUAUUACGUUUU | -3.88 ± 0.17 | -2.72 ± 0.14
GAUAAGCAAUAUUACGGAGU | -2.46 ± 0.16 | -0.942 ± 0.14
ACAUAGCAAUAUUACGGAGA | -3.28 ± 0.25 | -2.47 ± 0.24
CGUGAGCAAUAUUACGUAUC | -1.84 ± 0.16 | -2.42 ± 0.27
ACAUAGCAAUAUUACGGUCU | -1.46 ± 0.071 | -0.428 ± 0.089
AAGUAGCAAUAUUACGAAGG | -2.75 ± 0.24 | -3.26 ± 0.47
GCAGAGCAAUAUUACGAAAU | -4.35 ± 0.29 | -2.79 ± 0.26
GACCAGCAAUAUUACGCUAU | -1.28 ± 0.074 | 0.126 ± 0.082
CGGGAGCAAUAUUACGCGCU | -3.25 ± 0.32 | –
AUCAAGCAAUAUUACGGCUG | -0.736 ± 0.071 | -0.0189 ± 0.11
AAUCAGCAAUAUUACGAGUA | -1.43 ± 0.081 | 0.415 ± 0.083
GCCUAGCAAUAUUACGCAGG | -4.18 ± 0.28 | -2.44 ± 0.25
CUCCAGCAAUAUUACGGUCU | -4 ± 0.23 | -2.31 ± 0.2
CUUAAGCAAUAUUACGACGC | -3.04 ± 0.28 | -2.22 ± 0.4
CAGGAGCAAUAUUACGAACU | -3.14 ± 0.34 | -3.19 ± 0.32
CUAGAGCAAUAUUACGUCAA | -3.76 ± 0.24 | -2.23 ± 0.21
UCGGAGCAAUAUUACGGCUG | -2.33 ± 0.18 | -1.5 ± 0.19
CUUAAGCAAUAUUACGAUUU | -4.53 ± 0.42 | -2.7 ± 0.24

Sequence | self-splicing fitness (ln) (30 °C) | self-splicing fitness (ln) (37 °C)
CUGUAGCAAUAUUACGGCCG | -0.368 ± 0.13 | 0.257 ± 0.16
CUGCAGCAAUAUUACGUGAG | -0.703 ± 0.067 | 0.216 ± 0.093
AUAAAGCAAUAUUACGGCAU | 0.53 ± 0.098 | -0.0243 ± 0.11
GACUAGCAAUAUUACGUGUG | -1.12 ± 0.055 | -0.793 ± 0.073
GGAUAGCAAUAUUACGCGCA | -0.345 ± 0.14 | 0.0709 ± 0.14
UAUAAGCAAUAUUACGAAGU | -3.7 ± 0.35 | -2.71 ± 0.38
CCCGAGCAAUAUUACGGAGC | -1.75 ± 0.16 | -2.77 ± 0.36
CAGAAGCAAUAUUACGGACG | -0.743 ± 0.092 | -0.739 ± 0.12
CUGAAGCAAUAUUACGGCAG | -0.522 ± 0.11 | -0.657 ± 0.14
GAACAGCAAUAUUACGGAGA | -1.55 ± 0.19 | -1.88 ± 0.13
UUGAAGCAAUAUUACGUUCC | – | -2.79 ± 0.35
GAACAGCAAUAUUACGAGCG | -1.94 ± 0.089 | -0.559 ± 0.1
GACUAGCAAUAUUACGCUGU | -3.22 ± 0.2 | -2.83 ± 0.28
AUUAAGCAAUAUUACGGAGG | -2.32 ± 0.16 | -1.42 ± 0.27
GGCUAGCAAUAUUACGCGGU | -2.92 ± 0.38 | -3.63 ± 0.24
AGCAAGCAAUAUUACGCUCA | -2.66 ± 0.18 | -1.69 ± 0.15
UCUAAGCAAUAUUACGGUCA | -1.31 ± 0.12 | -0.792 ± 0.12
AUAUAGCAAUAUUACGGUGC | -2.77 ± 0.38 | -1.94 ± 0.27
GAUCAGCAAUAUUACGAAGA | -0.925 ± 0.11 | -0.0626 ± 0.11
ACCGAGCAAUAUUACGUUCA | -1.34 ± 0.13 | -0.705 ± 0.1
AUCCAGCAAUAUUACGAGUG | -1.66 ± 0.095 | -1.77 ± 0.11
UUACAGCAAUAUUACGGAAA | -1.42 ± 0.14 | -0.561 ± 0.14
AUAGAGCAAUAUUACGGAUA | -2.83 ± 0.31 | -1.8 ± 0.39
CGCAAGCAAUAUUACGGCUG | -1.33 ± 0.065 | 0.0892 ± 0.085
